Data taken from publication PMC3120127.

What was measured:
Assay in all cases: split reporter
[1] = target: N-FLUC-PFE1350c (amino acids 9-135) (P. falciparum)
[2] = target: N-FLUC-PfMyb2 fragment #13 (P. falciparum)
[3] = target: N-FLUC negative control (firefly)

fold luciferase signal over N-FLUC-PFE1350c plus the C-FLUC negative control [1] [fold]	fold luciferase signal over the N-FLUC fusion plus the C-FLUC negative control [2] [fold]	Substance	fold luciferase signal over the N-FLUC fusion plus the C-FLUC negative control [1] [fold]	fold luciferase signal over N-FLUC-PFE1350c plus the C-FLUC negative control [3] [fold]
< 2.3	36	PFC0365w-C-FLUC (amino acids 45-205) (domain or fragment)		
		PFC0255c-C-FLUC (amino acids 4-137) (domain or fragment)	> 600	< 2.3
< 2.3		PFL1705w-C-FLUC (amino acids 95-213) (domain or fragment)		
